Data taken from PMC9482650, “Quantitative fragmentomics allow affinity mapping of interactomes” (Nature Communications, 2022).
Numbering of substitutions follows the chain as printed. Blank lines part the entries; values can stand above or below the binder they belong to.

Assays:
Test in all cases: holdup assay
Parameters in all cases: key: below the threshold = too weak to quantify, mostly under pKd 3.1 to 4
[1] = target: T1, SNTA1, Q13424
T1 sequence (Q13424 82-180, limits assumed, looked up): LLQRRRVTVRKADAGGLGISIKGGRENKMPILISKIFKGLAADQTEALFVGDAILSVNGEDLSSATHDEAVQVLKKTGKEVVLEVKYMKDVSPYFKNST

[2] = target: LIMK2, P53671
LIMK2, P53671, sequence (P53671 143-248): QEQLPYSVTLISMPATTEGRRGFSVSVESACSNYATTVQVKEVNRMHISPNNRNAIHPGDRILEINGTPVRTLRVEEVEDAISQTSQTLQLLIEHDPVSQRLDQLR

[3] = target: DLG2_3, Q15700
[4] = target: FRMPD2_2, Q68DX3
FRMPD2_2, Q68DX3, sequence (Q68DX3 944-1038): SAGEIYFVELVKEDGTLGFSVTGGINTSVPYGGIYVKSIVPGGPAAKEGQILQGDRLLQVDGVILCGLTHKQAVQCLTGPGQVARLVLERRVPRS

[5] = target: T2, SIPA1L2, Q9P2F8
T2 sequence (Q9P2F8 945-1036, limits assumed, looked up): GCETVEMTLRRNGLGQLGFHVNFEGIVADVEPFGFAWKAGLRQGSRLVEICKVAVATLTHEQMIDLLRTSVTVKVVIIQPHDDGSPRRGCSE

[6] = target: T3, MPP6, Q9NZW5
T3 sequence (Q9NZW5 125-219, limits assumed, looked up): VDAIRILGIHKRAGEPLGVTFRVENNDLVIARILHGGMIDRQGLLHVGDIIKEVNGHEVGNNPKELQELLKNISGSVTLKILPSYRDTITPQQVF

[7] = target: FRMPD3, Q5JV73
FRMPD3, Q5JV73, sequence (Q5JV73 12-100): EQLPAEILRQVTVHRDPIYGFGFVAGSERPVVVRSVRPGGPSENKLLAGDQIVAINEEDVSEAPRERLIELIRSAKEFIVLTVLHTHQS

[8] = target: T4, APBA1_2, Q02410
T4 sequence (Q02410 742-832, limits assumed, looked up): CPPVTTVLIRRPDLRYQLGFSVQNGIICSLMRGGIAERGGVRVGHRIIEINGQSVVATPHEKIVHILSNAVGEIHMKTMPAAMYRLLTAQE

[9] = target: DLG5_1, Q8TDM6
DLG5_1, Q8TDM6, sequence (Q8TDM6 617-713): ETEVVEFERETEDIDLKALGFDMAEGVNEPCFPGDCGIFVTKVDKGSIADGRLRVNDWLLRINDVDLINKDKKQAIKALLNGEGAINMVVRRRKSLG

[10] = target: IL16_3, Q14005
IL16_3, Q14005, sequence (Q14005 1107-1207): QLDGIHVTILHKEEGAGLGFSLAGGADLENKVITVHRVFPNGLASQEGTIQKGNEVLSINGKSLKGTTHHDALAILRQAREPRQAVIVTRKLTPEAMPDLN

[11] = target: PDLIM1, O00151
PDLIM1, O00151, sequence (O00151 1-87): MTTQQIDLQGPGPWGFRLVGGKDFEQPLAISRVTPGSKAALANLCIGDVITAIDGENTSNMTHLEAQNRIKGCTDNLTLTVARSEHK

[12] = target: HTRA1, Q92743
HTRA1, Q92743, sequence (Q92743 360-477): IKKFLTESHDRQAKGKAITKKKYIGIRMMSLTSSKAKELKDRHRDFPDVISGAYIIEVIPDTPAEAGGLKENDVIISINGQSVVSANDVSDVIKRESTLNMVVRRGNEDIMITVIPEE

[13] = target: T5, FRMPD1, Q5SYB0
T5 sequence (Q5SYB0 52-145, limits assumed, looked up): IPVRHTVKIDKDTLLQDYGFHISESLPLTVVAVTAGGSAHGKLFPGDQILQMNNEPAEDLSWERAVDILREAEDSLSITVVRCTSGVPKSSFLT

[14] = target: GRIP2_5, Q9C0E4
GRIP2_5, Q9C0E4, sequence (Q9C0E4 544-642): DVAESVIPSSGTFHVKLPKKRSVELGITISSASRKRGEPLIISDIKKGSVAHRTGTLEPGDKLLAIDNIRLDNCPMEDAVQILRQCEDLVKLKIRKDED

[15] = target: T6, SNTG2, Q9NY99
T6 sequence (Q9NY99 68-166, limits assumed, looked up): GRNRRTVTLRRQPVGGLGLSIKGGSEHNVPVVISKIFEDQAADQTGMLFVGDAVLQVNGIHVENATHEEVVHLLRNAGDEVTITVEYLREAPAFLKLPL

[16] = target: T7, PARD3B_1, Q8TEW8
T7 sequence (Q8TEW8 196-299, limits assumed, looked up): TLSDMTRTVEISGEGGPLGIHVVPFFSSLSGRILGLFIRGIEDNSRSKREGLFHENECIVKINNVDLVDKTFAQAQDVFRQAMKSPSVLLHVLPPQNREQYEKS

[17] = target: MAGI2_5, Q86UL8
MAGI2_5, Q86UL8, sequence (Q86UL8 915-1017): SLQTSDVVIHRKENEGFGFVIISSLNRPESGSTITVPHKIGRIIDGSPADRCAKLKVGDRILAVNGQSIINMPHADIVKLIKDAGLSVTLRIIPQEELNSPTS

[18] = target: Inadl_9, Q8NI35
Inadl_9, Q8NI35, sequence (Q8NI35 1530-1615): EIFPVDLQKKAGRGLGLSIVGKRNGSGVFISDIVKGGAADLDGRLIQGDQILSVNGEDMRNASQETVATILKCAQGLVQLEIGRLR

[19] = target: T8, RADIL, Q96JH8
T8 sequence (Q96JH8 971-1071, limits assumed, looked up): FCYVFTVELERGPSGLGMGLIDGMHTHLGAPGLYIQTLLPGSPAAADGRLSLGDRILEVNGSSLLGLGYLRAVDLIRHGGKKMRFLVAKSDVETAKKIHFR

[20] = target: DLG2_2, Q15700
[21] = target: PICK1, Q9NRD5
PICK1, Q9NRD5, sequence (Q9NRD5 17-115): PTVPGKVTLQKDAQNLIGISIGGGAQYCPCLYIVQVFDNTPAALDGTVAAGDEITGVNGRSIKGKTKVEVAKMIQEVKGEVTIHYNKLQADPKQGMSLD

[22] = target: T9, MPP2, Q14168
T9 sequence (Q14168 180-250, limits assumed, looked up): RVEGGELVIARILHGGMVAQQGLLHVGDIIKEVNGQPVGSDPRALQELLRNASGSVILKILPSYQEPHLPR

[23] = target: DLG4_3, P78352
DLG4_3, P78352, sequence (P78352 306-403): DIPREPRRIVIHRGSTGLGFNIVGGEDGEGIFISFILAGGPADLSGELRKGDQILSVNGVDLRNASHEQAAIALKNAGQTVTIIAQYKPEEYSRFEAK

[24] = target: T10, APBA2_2, Q99767
T10 sequence (Q99767 654-744, limits assumed, looked up): T4 sequence (Q02410 742-832, limits assumed, looked up) with R10K, R15K, P59A, H65Q, I66A, A70S, Y84F, A89G

[25] = target: T11, DLG3_2, Q92796
T11 sequence (Q92796 221-321, limits assumed, looked up): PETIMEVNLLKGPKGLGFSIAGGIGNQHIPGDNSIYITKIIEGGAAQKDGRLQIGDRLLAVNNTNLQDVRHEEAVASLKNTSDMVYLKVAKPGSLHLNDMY

[26] = target: T12, ARHGAP21, Q5T5U3
T12 sequence (Q5T5U3 45-169, limits assumed, looked up): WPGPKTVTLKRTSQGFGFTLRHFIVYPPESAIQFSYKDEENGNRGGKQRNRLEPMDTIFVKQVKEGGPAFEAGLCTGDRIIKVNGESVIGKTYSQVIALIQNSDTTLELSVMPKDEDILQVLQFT

[27] = plain residues with an end cap or a label only (N-terminal biotin on a linker: ttds)
[28] = plain residues with an end cap or a label only (N-terminal biotin on a linker: ahx)
[29] = plain residues with an end cap or a label only (N-terminal biotin on a linker: gsgsgs; C-terminal amide)

B3: CNKSR2, Q8WXI2 (peptide)
chain: HTHSYIETHV
- pKd [1, 28]: 4.93
- pKd [2, 28]: below the threshold
- pKd [3, 28]: 4.54
- pKd [4, 28]: 4.83
- pKd [5, 28]: below the threshold
- pKd [6, 28]: below the threshold
- pKd [7, 28]: below the threshold
- pKd [8, 28]: 4.16
- pKd [9, 28]: below the threshold
- pKd [10, 28]: below the threshold
- pKd [11, 28]: below the threshold
- pKd [12, 28]: 3.84
- pKd [13, 28]: below the threshold
- pKd [14, 28]: below the threshold
- pKd [15, 28]: 4.67
- pKd [16, 28]: below the threshold
- pKd [17, 28]: 4.83
- pKd [18, 28]: 3.64
- pKd [19, 28]: 4.22
- pKd [20, 28]: 4.42
- pKd [21, 28]: below the threshold
- pKd [22, 28]: below the threshold
- pKd [23, 28]: 3.74
- pKd [24, 28]: below the threshold
- pKd [25, 28]: 5.04
- pKd [26, 28]: below the threshold

B5: AXIN1_int, O15169 (peptide)
chain: TLSLTDSSVDGIPPYR
- pKd [1, 29]: below the threshold
- pKd [2, 29]: below the threshold
- pKd [3, 29]: 3.67
- pKd [4, 29]: below the threshold
- pKd [5, 29]: below the threshold
- pKd [6, 29]: 3.93
- pKd [7, 29]: below the threshold
- pKd [8, 29]: below the threshold
- pKd [9, 29]: below the threshold
- pKd [10, 29]: below the threshold
- pKd [11, 29]: below the threshold
- pKd [12, 29]: below the threshold
- pKd [13, 29]: below the threshold
- pKd [14, 29]: below the threshold
- pKd [15, 29]: below the threshold
- pKd [16, 29]: below the threshold
- pKd [17, 29]: below the threshold
- pKd [18, 29]: below the threshold
- pKd [19, 29]: below the threshold
- pKd [20, 29]: below the threshold
- pKd [21, 29]: below the threshold
- pKd [22, 29]: below the threshold
- pKd [23, 29]: below the threshold
- pKd [24, 29]: below the threshold
- pKd [25, 29]: 4.08
- pKd [26, 29]: below the threshold

The remaining lines, values ahead:

- pKd [1, 27]: below the threshold
- pKd [2, 27]: below the threshold
- pKd [3, 27]: 3.77
- pKd [4, 27]: below the threshold
- pKd [5, 27]: below the threshold
- pKd [6, 27]: below the threshold
- pKd [7, 27]: below the threshold
- pKd [8, 27]: 3.74
- pKd [9, 27]: below the threshold
- pKd [10, 27]: below the threshold
- pKd [11, 27]: below the threshold
- pKd [12, 27]: below the threshold
- pKd [13, 27]: below the threshold
- pKd [14, 27]: below the threshold
- pKd [15, 27]: 3.73
- pKd [16, 27]: below the threshold
- pKd [17, 27]: below the threshold
- pKd [18, 27]: below the threshold
- pKd [19, 27]: below the threshold
- pKd [20, 27]: below the threshold
- pKd [21, 27]: below the threshold
- pKd [22, 27]: below the threshold
- pKd [23, 27]: below the threshold
- pKd [24, 27]: below the threshold
- pKd [25, 27]: 4.14
- pKd [26, 27]: 3.61
B1: KIR3DL3, Q8N743 (peptide)
chain: PKTPPTDTSV

- pKd [1, 27]: 3.98
- pKd [2, 27]: below the threshold
- pKd [3, 27]: below the threshold
- pKd [4, 27]: below the threshold
- pKd [5, 27]: below the threshold
- pKd [6, 27]: below the threshold
- pKd [7, 27]: below the threshold
- pKd [8, 27]: 3.64
- pKd [9, 27]: below the threshold
- pKd [10, 27]: below the threshold
- pKd [11, 27]: below the threshold
- pKd [12, 27]: 3.63
- pKd [13, 27]: below the threshold
- pKd [14, 27]: below the threshold
- pKd [15, 27]: 4.67
- pKd [16, 27]: 4.16
- pKd [17, 27]: 3.82
- pKd [18, 27]: below the threshold
- pKd [19, 27]: below the threshold
- pKd [20, 27]: below the threshold
- pKd [21, 27]: below the threshold
- pKd [22, 27]: below the threshold
- pKd [23, 27]: below the threshold
- pKd [24, 27]: below the threshold
- pKd [25, 27]: below the threshold
- pKd [26, 27]: below the threshold
B2: DLGAP4, Q9Y2H0 (peptide)
chain: IYVPEAQTRL

- pKd [1, 27]: 3.81
- pKd [2, 27]: below the threshold
- pKd [3, 27]: below the threshold
- pKd [4, 27]: below the threshold
- pKd [5, 27]: below the threshold
- pKd [6, 27]: below the threshold
- pKd [7, 27]: below the threshold
- pKd [8, 27]: below the threshold
- pKd [9, 27]: below the threshold
- pKd [10, 27]: below the threshold
- pKd [11, 27]: below the threshold
- pKd [12, 27]: 3.86
- pKd [13, 27]: below the threshold
- pKd [14, 27]: below the threshold
- pKd [15, 27]: 3.75
- pKd [16, 27]: 3.61
- pKd [17, 27]: below the threshold
- pKd [18, 27]: below the threshold
- pKd [19, 27]: below the threshold
- pKd [20, 27]: below the threshold
- pKd [21, 27]: below the threshold
- pKd [22, 27]: below the threshold
- pKd [23, 27]: below the threshold
- pKd [24, 27]: below the threshold
- pKd [25, 27]: 3.55
- pKd [26, 27]: below the threshold
B4: SLC1A5, Q15758 (peptide)
chain: TVASEKESVM
